Assay results from patent US20160024487A1 (Novo Nordisk, published 2016).
Where no end group is shown, it is not given here. The star is where a group is joined. Dnp = O=[N+]([O-])c1ccc(*)c([N+](=O)[O-])c1; 2Abz = Nc1ccccc1C(=O)O

Molecular target: Human plasma purified α-thrombin (human, UniProt P00734 328-622)
Experiment: cell-based or functional assay

- Fold-Improved (FpA): 1 fold
- Fold-Improved (PAR-1): 0.1 fold
Binder: K(Dnp)DFLAEGGGVRIVGGK(2Abz) [Lys(Dnp)-DFLAEGGGVRIVGG-Lys(Abz)]
